The source of these data is the DeepSol protein solubility set.

A short description of the data set: soluble on expression in E. coli; label from the status in PepcDB or PDB records.
As to “MGSDKIHHHHHHMKKLLNTLYLTQEDFYVTKEGDNIVIKQEGKVLKRFPFRIIDGIVCFSYLGVSSALVKLCTENQINLSFHTPQGRFCGRYIGSTNGNVLLRREHYRLSDREESLEYAKRFILAKISNSRKYLLRFKRDHRQQIDTKLFEAVNDELIWALEMVQAADNKDSLRGIEGQAANQYFRIFNDLVLTDKKTFYFQGRSKRPPLDCVNALLSFGYSLLTFECQSALEAVGLDSYVGFFHTDRPGRASLALDLVEEFRSYIVDRFVFSLINKGQLQKKHFEVKENGSILLTENGRAIFIDLWQKRKHTEVEHPFTKEKVKLMLLPYVQAQLLAKAIRGDLESYPPFMV”, the “soluble on expression in E. coli” value was “not soluble”.

“MVLVLAEIITVGDELLTGNTVDSNSAYIAQRLTEKGFWVRRITTVGDDVKEIENAVREAISRKPEVLIISGGLGPTHDDVTMLGVANAIGRKLKLCEDCLERIKEFYEELHRKGLIDDPTLNEARKKMAYLPEGSEPLNNTEGAAPGAYVEYEGVKIFILPGMPREMKAMLESEVLPRLGERKFVQKKFLAEITDESKLAPILEDTIERFKVKIHSSPKGFGKYIGIIIFAEDDEVIGKVIRYIEGKGIKFREGW”: the “soluble on expression in E. coli” value was “soluble”.

Take “MNRREANALDRYLTEPTEKPHKETYEDDPVDTTDYFGNEIADEDGVFEITFAMKCLYTGQPVLTCKKIATQDTIVDLIEELGEENVYLIEYVSSGKRYKEGLLND”: the “soluble on expression in E. coli” value is reported as “not soluble”.

With “MVSEMLSEAGHSVSYLKGGMKAWSEHLEPVKVGDLKDGGEMYQFVRIGKGCLSYMVISNGEAAIIDATRMVNFFIDFAKGKGATITHVFDTHLHADHISGGRVIAEKTKATYWLPPKDAEEVEFDYQPLEEGNDIIIGNTTIKIQPIYSPGHTIGSTSFIVDDQYLLSGDILFIDSIGRPDLAGMAEDWVGDLRKTLYSRYKALSKDLIVLPAHFMIIDELNENGSVGKQLSTLFSENHGLNIADETEFRHLVTDHLPPQPNAYQEIRETNMGKISPDEEKQREMEIGPNRCAIRLEHHHHHH”, the “soluble on expression in E. coli” value is reported as “not soluble”. For “AIALTTNASSKIFSKASTAELVGHTRKVHCLSWNPKGGLLGSGGVDCVARIWDVEKLQQKAELEGHTSSIEQLKWDPTANVFFVSASLDHKVLFWDLRARNSEPVASVETQGENINLAWSQDGVYCAVGDKDDNLSFIDVRKFDFFERFQFAEEVNEFKWSPSGPFFFMTLGKEVLVFRWPTMEQQLRLQVHADRCYCLEFDRSGRYFALGGADSIISLWETEYMLCTWTVDRLEYPIRTISFSHDGQFIAAGSEDSVIDISDILNGRQTYALGVKGATNVVAWHPSRHLLAYATEEEYSRDGVAIHLYGTISKDNI”, the “soluble on expression in E. coli” value is “soluble”. On to “RVLEDLGWYVAHNIPPQIILELIDMCAREDSPVDKVAVVCDVRSREFRGSLTQVVSELRDKQLDPTVLFLEARDEVLIKRFDNVRRTHPLQGSQTLQVGIERERTVLSPVKEDASVVIDTSDLSVHDLRRAIESSFRTIATRTQHVTIESFGFKHGSPRDADFVVDVRFLPNPFWVPELRPFRGVDKPVSDYVLSQKGAEEFLNNFVDMLKDMLPGYRHEGKNFITIGVGCTGGHHRSVAVSEELAKRIADQTTLDVSVVHRDINRH”, for which the “soluble on expression in E. coli” value was “not soluble”. Then “MGHHHHHHSHMIDILDVKSRATIQDLGRFGLRRFGISHCGAMDKLALRAGNILLGNAENVPAIEVPLGGITLQFQQDMNFCVTGAFYEMMLDDKPVFAYWRYQVRAGQILKMARAKIGMYGYLCVQGGFVLPQALNSCSTDLRAQIGGIEGRCLQAGDQLQTANDHILRSEIGIAPIPLRDVIRALPSSEYQAFKRKSQYYWWRNEWTLQSNSDRMGYRFQGQTLELKQPLEMLSHAIQFGSVQVPPSGQPIILMADAQTTGGYPKIANVIDADLGALAQVRLGSTIKFEAVSLQEAAKLRRKNEIYLDQIRRIVDEKN”, with “not soluble”.
